Source: article PMC4728409

Columns and labels:
BRCA1 BRCT domain = BRCA1 BRCT domain (UniProt P38398); experiment: far-Western, GST-BRCT overlay on His-UHRF1; settings: reference: kinase-treated His-UHRF1 WT; sites S674
BRCA1 = BRCA1 (UniProt P38398); experiment: co-immunoprecipitation; settings: reference: wild type; sites S674
[1] = target: phosphorylated pS674 peptide of UHRF1 (human (RefSeq NP_037414.3)); experiment: SPR; BIAcore; biotinylated peptides on a streptavidin chip (about 250 RU); GST-BRCA1-BRCT as analyte, 39 nM to 2.5 μM (legend: 17 nM to 2.5 μM), 30 μl min^-1; 150 mM NaCl, 0.005% Polysorbate 20, 10 mM HEPES pH 7.4, 1 mM PMSF

UHRF1 (from UniProt Q96T88-2) kinase-treated His-UHRF1 S674A
binding against the reference (BRCA1 BRCT domain): lost

UHRF1 (from UniProt Q96T88-2) S674A
binding against the reference (BRCA1): weaker

GST-BRCT (wild type) domain of BRCA1 (domain or fragment)
Kd [1]: 356 nM
